Data on 5 molecules can be found in patent US20160319034A1 (ONCOMED PHARMACEUTICALS, published 2016).

Experiment [1] addresses human MET (soluble analyte in the Biacore assay) (human) (UniProt P08581). The experiment is described as follows: SPR (Biacore 2000): agent captured via goat anti-human antibody, human MET injected.
In experiment [2] the target is full-length human MET (FL-MET) on cells (human) (UniProt P08581). The experiment is described as follows: FACS: inhibition of biotin-HGF binding to MET-transfected HEK-293T cells, agent at 0.16 µg/ml. On the technique in general: A flow cytometer gives signals particle by particle.
Sequence of full-length human MET (FL-MET) on cells (human) (P08581 25-1390 limits assumed): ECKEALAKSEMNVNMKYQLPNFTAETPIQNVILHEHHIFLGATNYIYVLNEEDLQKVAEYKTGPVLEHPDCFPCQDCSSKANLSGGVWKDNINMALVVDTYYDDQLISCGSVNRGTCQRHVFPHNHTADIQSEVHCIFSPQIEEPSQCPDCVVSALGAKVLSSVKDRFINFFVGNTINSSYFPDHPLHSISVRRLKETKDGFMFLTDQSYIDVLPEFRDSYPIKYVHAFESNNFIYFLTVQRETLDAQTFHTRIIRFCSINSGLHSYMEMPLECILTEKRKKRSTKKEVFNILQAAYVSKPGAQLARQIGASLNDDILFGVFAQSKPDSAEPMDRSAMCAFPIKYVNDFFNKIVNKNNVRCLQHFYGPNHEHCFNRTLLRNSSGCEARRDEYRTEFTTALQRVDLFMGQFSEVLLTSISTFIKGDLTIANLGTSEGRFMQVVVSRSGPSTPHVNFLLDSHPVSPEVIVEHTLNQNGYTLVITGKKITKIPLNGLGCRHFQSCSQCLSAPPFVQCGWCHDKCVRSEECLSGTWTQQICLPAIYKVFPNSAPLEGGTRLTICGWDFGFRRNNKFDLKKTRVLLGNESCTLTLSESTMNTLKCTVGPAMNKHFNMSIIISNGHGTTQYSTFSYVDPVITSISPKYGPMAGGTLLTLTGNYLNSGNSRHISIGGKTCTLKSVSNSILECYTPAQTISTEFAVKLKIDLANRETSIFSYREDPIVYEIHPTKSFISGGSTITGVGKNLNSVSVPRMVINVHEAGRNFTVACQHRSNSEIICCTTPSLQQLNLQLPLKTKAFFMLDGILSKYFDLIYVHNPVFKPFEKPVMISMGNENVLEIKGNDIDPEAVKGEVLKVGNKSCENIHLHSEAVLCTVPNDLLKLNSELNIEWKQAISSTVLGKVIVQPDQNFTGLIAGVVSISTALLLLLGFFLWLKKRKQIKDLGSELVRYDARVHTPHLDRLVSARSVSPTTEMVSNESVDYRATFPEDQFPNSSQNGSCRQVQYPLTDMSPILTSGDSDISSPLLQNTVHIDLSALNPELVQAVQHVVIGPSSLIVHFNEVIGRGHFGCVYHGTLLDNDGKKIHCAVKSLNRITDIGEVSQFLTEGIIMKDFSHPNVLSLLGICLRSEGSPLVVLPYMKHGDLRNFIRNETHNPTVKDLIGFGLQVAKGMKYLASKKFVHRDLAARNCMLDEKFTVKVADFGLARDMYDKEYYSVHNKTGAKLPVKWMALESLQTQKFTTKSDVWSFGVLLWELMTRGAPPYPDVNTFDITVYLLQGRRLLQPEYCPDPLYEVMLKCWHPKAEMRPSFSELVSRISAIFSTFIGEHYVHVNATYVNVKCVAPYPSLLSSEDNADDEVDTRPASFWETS
The target is the same in experiment [3]. The experiment is described as follows: FACS blocking assay on MET-transfected HEK-293T cells; blocked ligand: biotinylated HGF, PE-streptavidin.
Experiment [4] has the same target. The experiment is described as follows: FACS: inhibition of biotin-HGF binding to MET-transfected HEK-293T cells, agent at 10 µg/ml.
In experiment [5] the target is T1, human MET (soluble analyte in the Biacore assay) (human, UniProt P08581 25-932). The experiment is described as follows: SPR (Biacore 2000): agent captured via goat anti-human antibody, human MET injected. On the procedure:
(§1) The KD of monovalent version of anti-MET antibody 73R009, monovalent anti-MET antibody 5D5, and anti-MET/FZD8-Fc bispecific agent 315B06 were determined using a Biacore 2000 system from Biacore Life Sciences (GE Healthcare). A goat anti-human antibody (Invitrogen H10500) was coupled to a carboxymethyl-dextran (CM5) SPR chip using standard amine-based chemistry (NHS/EDC) and blocked with ethanolamine. Antibodies were diluted to a concentration of 10 μg/ml in HBS-P-BSA (0.01M HEPES pH7.4, 0.15M NaCl, 0.005% v/v Polysorbate 20, 10 μg/ml BSA) and captured onto the chip via the anti-human antibody. Human MET was serially diluted 2-fold from 300 nM to 37.5 nM in HBS-P-BSA and injected sequentially over the captured anti-MET antibodies. MET association and dissociation was measured at each concentration. After each antigen injection 5 μl of 100 mM H₃P0₄ was injected to remove the antigen-antibody complex and a subsequent injection performed. Kinetic data were collected over time and were fit using the simultaneous global fit equation to yield affinity constants (KD values) for each agent.
In addition, the bispecific agent 315B06 appeared to have stronger affinity for human MET than anti-MET antibody 5D5.
Background: Surface plasmon resonance follows binding to a sensor surface in real time, without labels.

The target of experiment [6] is T1, human MET (soluble analyte in the …). The experiment is described as follows: SPR (Biacore 2000) as described in Example 1. On the procedure: as §1
Antibody 73R010 was used in a variation of the anti-MET/FZD8-Fc bispecific agent, and this variant bispecific agent is referred to as 315B07.

Experiment [7] addresses T2, human Sema mutant Mut99 (Q99R; Sema-hCD4TM-GFP) on cells (human, UniProt P08581 25-515).
T2 construct: not shown: human CD4 transmembrane domain and GFP (display and reporter carrier at the C end)
The experiment is described as follows: FACS on transfected HEK-293T cells. On the procedure:
(§2) To identify the MET epitope recognized by the anti-MET/FZD8-Fc bispecific agent, epitope mapping was performed. […] Therefore, site-directed mutagenesis was performed to create a series of human Sema mutants. Kunkel mutagenesis was used to replace specific amino acids in the human Sema sequence with the corresponding amino acids found in the mouse Sema sequence at predicted antibody-binding sites. The human Sema mutants were: Mut96,99 (F96L and Q99R), Mut96 (F96L), Mut99 (Q99R), Mut328 (Q328N), Mut331 (R331K), and Mut337,338 (L337P and N338S).
(§3) Mammalian expression plasmid vectors encoding a wild-type human Sema, a wild-type mouse Sema, a mouse/human Sema mutant wherein the 5′ end is mouse (aa 1-331) and the 3′ end is human (aa 332-515), and the human Sema mutants outlined above were generated by standard recombinant technology. These constructs comprise the transmembrane domain of a human CD4 protein and GFP (for example, Sema-hCD4TM-GFP). These expression constructs allow for expression of the Sema domain on the cell surface, as well as expression of GFP to monitor expression. […] The cells were washed and bound bispecific agents were detected with a secondary anti-human Fc antibody conjugated to allophycocyanin (APC). […] Labeled cells were analyzed by flow cytometry to measure the binding of 315B07 and 5D5/FZD8-Fc to the series of Sema mutants.

Experiment [8] concerns the target T3, human Sema mutant Mut96,99 (F96L and Q99R; Sema-hCD4TM-GFP) on cells (human, UniProt P08581 25-515).
T3 construct: not shown: human CD4 transmembrane domain and GFP (display and reporter carrier at the C end)
The experiment is described as follows: FACS on transfected HEK-293T cells. Here is the method:
as §2, §3

The term Kd denotes the concentration at which binding is half-saturated. Low values mean tighter binding, high ones weaker binding.

T1 sequence (P08581 25-932 limits assumed): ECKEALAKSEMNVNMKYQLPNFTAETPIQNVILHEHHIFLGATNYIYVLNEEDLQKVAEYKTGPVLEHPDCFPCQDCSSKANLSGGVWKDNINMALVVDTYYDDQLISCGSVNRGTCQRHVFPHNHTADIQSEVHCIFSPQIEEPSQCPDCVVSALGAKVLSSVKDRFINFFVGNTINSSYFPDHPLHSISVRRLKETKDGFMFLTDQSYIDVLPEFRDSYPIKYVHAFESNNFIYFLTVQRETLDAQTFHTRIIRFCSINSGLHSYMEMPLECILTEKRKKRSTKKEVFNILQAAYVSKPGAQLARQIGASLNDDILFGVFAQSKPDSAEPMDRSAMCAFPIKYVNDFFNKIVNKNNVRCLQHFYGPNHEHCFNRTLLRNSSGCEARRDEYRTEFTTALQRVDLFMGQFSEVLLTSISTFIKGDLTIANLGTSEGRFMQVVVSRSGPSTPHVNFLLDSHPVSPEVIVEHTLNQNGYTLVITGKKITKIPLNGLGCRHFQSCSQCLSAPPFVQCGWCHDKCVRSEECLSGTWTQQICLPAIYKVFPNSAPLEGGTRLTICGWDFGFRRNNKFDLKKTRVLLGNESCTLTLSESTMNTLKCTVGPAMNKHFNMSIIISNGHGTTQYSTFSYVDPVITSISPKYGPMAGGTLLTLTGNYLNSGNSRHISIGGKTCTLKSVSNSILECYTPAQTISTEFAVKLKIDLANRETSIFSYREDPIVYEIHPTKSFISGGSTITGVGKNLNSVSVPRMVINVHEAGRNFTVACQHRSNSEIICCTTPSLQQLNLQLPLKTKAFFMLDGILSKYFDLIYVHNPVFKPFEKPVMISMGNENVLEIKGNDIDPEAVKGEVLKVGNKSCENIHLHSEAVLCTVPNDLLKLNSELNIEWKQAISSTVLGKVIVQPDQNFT
Sequence of human MET (soluble analyte in the Biacore assay) (human) (P08581 25-932 limits assumed): as above
T2 sequence (P08581 25-515 Q99R limits assumed): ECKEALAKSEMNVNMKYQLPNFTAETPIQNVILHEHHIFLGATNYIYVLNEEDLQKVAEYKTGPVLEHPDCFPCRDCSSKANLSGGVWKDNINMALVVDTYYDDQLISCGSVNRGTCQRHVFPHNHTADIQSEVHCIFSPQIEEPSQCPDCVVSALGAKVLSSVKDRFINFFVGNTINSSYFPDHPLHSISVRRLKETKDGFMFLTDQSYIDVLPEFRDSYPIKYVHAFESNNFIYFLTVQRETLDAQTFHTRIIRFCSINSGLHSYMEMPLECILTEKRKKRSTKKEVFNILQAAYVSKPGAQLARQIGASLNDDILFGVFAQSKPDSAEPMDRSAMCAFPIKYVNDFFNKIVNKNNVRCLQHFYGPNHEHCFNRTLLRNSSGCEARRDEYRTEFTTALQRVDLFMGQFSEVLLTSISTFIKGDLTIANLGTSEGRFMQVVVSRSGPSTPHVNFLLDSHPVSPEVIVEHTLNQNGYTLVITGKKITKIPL
T3 sequence (P08581 25-515 F96L/Q99R limits assumed): as the sequence (P08581 25-515 Q99R limits assumed) above, with F72L counted along it

In experiment [1], monovalent anti-MET antibody 5D5 came in with a Kd of 7.2 nM. In experiment [2], this molecule gave a percent reduction of HGF binding to MET of 28%. In experiment [3], the % Binding of hHGF at 0.16 ug/ml antibody amounted to 14.3%, the % Binding of hHGF at 0.3 ug/ml antibody came to 10.6%, the % Binding of hHGF at 0.625 ug/ml antibody is 12% and the % Binding of hHGF at 1.25 ug/ml antibody is 8.54%. In addition, in experiment [3], the % Binding of hHGF at 2.5 ug/ml antibody came to 9.61%, the % Binding of hHGF at 5 ug/ml antibody was determined as 6.67%, the % Binding of hHGF at 10 ug/ml antibody is 6.31% and the % Inhibition of hHGF binding at 0.3 ug/ml antibody was determined as 47%. In experiment [3], this molecule registered a % Inhibition of hHGF binding at 0.625 ug/ml antibody of 40%, a % Inhibition of hHGF binding at 1.25 ug/ml antibody of 57%, a % Inhibition of hHGF binding at 2.5 ug/ml antibody of 52% and a % Inhibition of hHGF binding at 5 ug/ml antibody of 67%. This molecule returned a percent reduction of HGF binding to MET in experiment [4] of 70%.

B1: anti-MET antibody 73R009 (bivalent “parental” antibody) (antibody, human IgG2, kappa, V domains shown)
VH: QVQLQESGPGLVKPSETLSLTCTVTGTTITASYAWSWIRQPPGKGLEWMGYISYSGGTDYNPSLKSRITISRDTFKNQFSLKLSSVTAADTATYYCARKGAYWGQGTLVTVSS
VL: DIVLTQSPATLSASPGEKVTLTCSASSSVSSSYLYWYQQKPGQAPKLLIYSTSNLASGVPARFSGSGSGTSYSLTISSLEPEDFATYYCHQWSSYPYTFGGGTKLEIKR
Take B1: the Kd in experiment [5] was found to be 1.1 nM.

B2: monovalent version of anti-MET antibody 73R009 (antibody, V domains shown)
VH: QVQLQESGPGLVKPSETLSLTCTVTGTTITASYAWSWIRQPPGKGLEWMGYISYSGGTDYNPSLKSRITISRDTFKNQFSLKLSSVTAADTATYYCARKGAYWGQGTLVTVSS
VL: DIVLTQSPATLSASPGEKVTLTCSASSSVSSSYLYWYQQKPGQAPKLLIYSTSNLASGVPARFSGSGSGTSYSLTISSLEPEDFATYYCHQWSSYPYTFGGGTKLEIK
notes: Only the 73R009 variable regions can be tied to this molecule; also called monovalent anti-MET antibody 73R009; monovalent version of 73R009
Consider B2, for which binding in experiment [5] was characterised by a dissociation constant (Kd) of 1.4 nM.

B3: anti-MET/FZD8-Fc bispecific agent 315B06 (bispecific antibody, human IgG2, kappa)
heavy: QVQLQESGPGLVKPSETLSLTCTVTGTTITASYAWSWIRQPPGKGLEWMGYISYSGGTDYNPSLKSRITISRDTFKNQFSLKLSSVTAADTATYYCARKGAYWGQGTLVTVSSASTKGPSVFPLAPCSRSTSESTAALGCLVKDYFPEPVTVSWNSGALTSGVHTFPAVLQSSGLYSLSSVVTVPSSNFGTQTYTCNVDHKPSNTKVDKTVERKCCVECPPCPAPPVAGPSVFLFPPKPKDTLMISRTPEVTCVVVDVSHEDPEVQFNWYVDGVEVHNAKTKPREEQFNSTFRVVSVLTVVHQDWLNGKEYKCKVSNKGLPAPIEKTISKTKGQPREPQVYTLPPSREKMTKNQVSLTCLVKGFYPSDIAVEWESNGQPENNYKTTPPMLKSDGSFFLYSKLTVDKSRWQQGNVFSCSVMHEALHNHYTQKSLSLSPGK
light: DIVLTQSPATLSASPGEKVTLTCSASSSVSSSYLYWYQQKPGQAPKLLIYSTSNLASGVPARFSGSGSGTSYSLTISSLEPEDFATYYCHQWSSYPYTFGGGTKLEIKRTVAAPSVFIFPPSDEQLKSGTASVVCLLNNFYPREAKVQWKVDNALQSGNSQESVTEQDSKDSTYSLSSTLTLSKADYEKHKVYACEVTHQGLSSPVTKSFNRGEC
chain: ASAKELACQEITVPLCKGIGYNYTYMPNQFNHDTQDEAGLEVHQFWPLVEIQCSPDLKFFLCSMYTPICLEDYKKPLPPCRSVCERAKAGCAPLMRQYGFAWPDRMRCDRLPEQGNPDTLCMDYNRTDLTTTKVDKTVERKSCVECPPCPAPPVAGPSVFLFPPKPKDTLMISRTPEVTCVVVDVSHEDPEVQFNWYVDGVEVHNAKTKPREEQFNSTFRVVSVLTVVHQDWLNGKEYKCKVSNKGLPAPIEKTISKTKGQPREPQVYTLPPSREEMTKNQVSLTCLVEGFYPSDIAVEWESNGQPENNYKTTPPMLDSDGSFFLYSELTVDKSRWQQGNVFSCSVMHEALHNHYTQKSLSLSPGK
notes: Heterodimer with one anti-MET arm (heavy and light chain) and one FZD8-Fc soluble receptor arm; also called bispecific anti-MET/FZD8-Fc agent 315B06; 351B06 [sic]
As to B3, binding in experiment [5] was characterised by a dissociation constant (Kd) of 1.8 nM.

B4: anti-MET/FZD8-Fc bispecific agent 315B07 (bispecific antibody, human IgG2, kappa)
heavy: QVQLQESGPGLVKPSETLSLTCTVSGTTITASYAWSWIRQPPGKGLEWMGYISYSGGTDYNPSLKSRVTISRDTFKNQFSLKLSSVTAADTAVYYCARKGAYWGQGTLVTVSSASTKGPSVFPLAPCSRSTSESTAALGCLVKDYFPEPVTVSWNSGALTSGVHTFPAVLQSSGLYSLSSVVTVPSSNFGTQTYTCNVDHKPSNTKVDKTVERKCCVECPPCPAPPVAGPSVFLFPPKPKDTLMISRTPEVTCVVVDVSHEDPEVQFNWYVDGVEVHNAKTKPREEQFNSTFRVVSVLTVVHQDWLNGKEYKCKVSNKGLPAPIEKTISKTKGQPREPQVYTLPPSREKMTKNQVSLTCLVKGFYPSDIAVEWESNGQPENNYKTTPPMLKSDGSFFLYSKLTVDKSRWQQGNVFSCSVMHEALHNHYTQKSLSLSPGK
light: EIVLTQSPATLSLSPGERATLSCSASSSVSSSYLYWYQQKPGQAPRLLIYSTSNLASGIPARFSGSGSGTDFTLTISRLEPEDFAVYYCHQWSSYPYTFGQGTKLEIKRTVAAPSVFIFPPSDEQLKSGTASVVCLLNNFYPREAKVQWKVDNALQSGNSQESVTEQDSKDSTYSLSSTLTLSKADYEKHKVYACEVTHQGLSSPVTKSFNRGEC
chain: ASAKELACQEITVPLCKGIGYNYTYMPNQFNHDTQDEAGLEVHQFWPLVEIQCSPDLKFFLCSMYTPICLEDYKKPLPPCRSVCERAKAGCAPLMRQYGFAWPDRMRCDRLPEQGNPDTLCMDYNRTDLTTTKVDKTVERKSCVECPPCPAPPVAGPSVFLFPPKPKDTLMISRTPEVTCVVVDVSHEDPEVQFNWYVDGVEVHNAKTKPREEQFNSTFRVVSVLTVVHQDWLNGKEYKCKVSNKGLPAPIEKTISKTKGQPREPQVYTLPPSREEMTKNQVSLTCLVEGFYPSDIAVEWESNGQPENNYKTTPPMLDSDGSFFLYSELTVDKSRWQQGNVFSCSVMHEALHNHYTQKSLSLSPGK
notes: Heterodimer with one humanized anti-MET arm (73R010) and one FZD8-Fc soluble receptor arm; also called OMP-315B07; 3151307 [sic]
Consider B4, for which, in experiment [6], the Kd came to 0.126 nM. For the same molecule, the binding result in experiment [7] and in experiment [8] was “no binding” throughout.
